Reference: patent US20060281702A1, “Combinatorial selection of phosphorothioate aptamers for RNases” (priority 2005, published 2006)
“Also recorded” adds a separate entry of the source. Like-named read-outs stand apart in the source and are kept apart here.

Key:
HIV-RT = biological target: T1, HIV-RT (Human immunodeficiency virus type 1 group M subtype B, UniProt P04585); assay: EMSA binding to intact HIV-RT
T1 construct: The 66 kDa domain, p66, contains an RNase H domain in addition to the DNA polymerase domain; purchased Amersham Bioscience (Piscataway, N.J.)
Procedure: Electrophoresis Mobility Shift Assay (EMSA). One of the selected thioaptamers (R12-2) was used to test the specific binding to RNase H. R12-2 was labeled with fluorescein at the 5′-end by enzymatic synthesis and was incubated with increasing concentrations of HIV-RT RNase H in Tris-HCl buffer (50 mM. pH 8), MgCl2 (10 mM) and DTT (40 mM) at 37° C. for 30 minutes. The reaction mixture was loaded on an 8% native polyacrylamide gel, electrophoresed and analyzed on the Flor Chem 8800 imager (Alpha Innotech, CA). Similar experiment was performed with the E.coli RNase H, to test whether R12-2 binds to the RNase H from E.coli.
Next, the binding of R12-2 to the intact HIV-RT by EMSA methods was also determined. In FIG. 4a, the protein in the band was detected by staining the gel with Coomassie blue.

[1] = biological target: T2, isolated domain of RNase H HIV-RT (Human immunodeficiency virus type 1 group M subtype B, UniProt P04585); assay: NMR titration of R12-2 with isolated RNase H domain; type: binding, HIV-1; settings: addition of RNase H to R12-2
T2 construct: encodes the 15 kDa RNase H domain of HIV-RT; made in house; host or cells: E. coli
Procedure: NMR Spectroscopy. Uniformly ^15N labeled RNase H and chemically synthesized R12-2 were used to monitor the binding of the R12-2 thioaptamer to the isolated domain of RNase H. The oligonucleotide concentrations were calculated from the absorbance value and using the molar absorption coefficients calculated using the nearest neighbor parameters. ^15N-HSQC spectra (26) of the isolated RNase H in the presence of 25 mM MgCl2 were acquired on Varian UnityPlus 750 MHz instrument equipped with pulse field gradients and using triple resonance probes. One dimensional proton NMR and 2D NOESY spectra (250 ms mixing time) of R12-2 thioaptamer in 95% H2O/5% D2O were collected at 750 MHz. The signals from the […] imino protons of R12-2, that are very sensitive to changes in the DNA conformation, were monitored during the titration of RNase H to the R12-2.

[2] = biological target: T3, RNase H activity of intact HIV-RT (Human immunodeficiency virus type 1 group M subtype B, UniProt P04585); assay: HIV-RT RNase H activity assay (3H-labeled DNA:RNA hybrid); type: biochemical; settings: intact HIV-RT 0.35 μM, R12-2 0.5-2 μM, FIG. 5
T3 construct: The 66 kDa domain, p66, contains an RNase H domain in addition to the DNA polymerase domain; purchased Amersham Bioscience (Piscataway, N.J.)
Procedure: HIV-RT RNase H activity assay. A DNA:RNA heteroduplex containing radiolabeled RNA was prepared as a substrate for the RNase H. A tritium-labeled RNA molecule, the stem loop 2 of the HIV psi-RNA (25), was made by in-vitro transcription using T7 RNA polymerase with a mixture of ATP, CTP, GTP and ^3H-UTP. Transcribed RNA was purified by centrifugation using Microcon YM-3 filters, to remove NTPs and other short RNA sequences. The purified RNA was annealed with the complementary DNA strand to give the DNA:RNA hybrid where the RNA strand is ^3H-labeled. HIV-RT (0.35 μM) was incubated with R12-2 thioaptamer (0.5-2 μM) in a buffer containing Tris-HCl (50 mM, pH 8.0), MgCl2 (6 mM), DTT (10 mM) and KCl (80 mM) for 30 min at 37° C. To this mixture, labeled DNA-RNA hybrid (40 000 cpm) was added to a final volume of 50 μl and incubated at 37° C. for 20 min. The reaction was quenched by addition of 150 μl of 10% trichloroacetic acid and the mixture was placed on ice for 10 min. The reaction mixture was filtered, washed and the amount of radioactivity in the filtrate was measured using a scintillation counter (Beckman Coulter, CA). The amount of radioactivity in the filtrate is regarded as proportional to RNase H activity.
The ability of the thioaptamer R12-2 to inhibit RNase H activity was tested using a radio-labeled substrate of a DNA:RNA hybrid duplex, as described in Methods. […]

isolated RNase H domain = biological target: T4, isolated RNase H domain (Human immunodeficiency virus type 1 group M subtype B, UniProt P04585); assay: RNase H activity of the isolated RNase H domain; type: biochemical, HIV
T4 construct: encodes the 15 kDa RNase H domain of HIV-RT; made in house; host or cells: E. coli

[3] = test system: HIV-1 SF162 (R5) in U373-MAGI-CCR5 cells; assay: HIV infection of ODN-transfected U373-MAGI-CCR5 cells; type: cell-based
From the text: Viruses and cells. HIV-1 SF162-R5 is a primary isolate that uses CCR5 as a coreceptor (R5), and was obtained from the NIH AIDS Research and Reference Reagent Program. U373-MAGI-CCR5 cells have modifications of the U373 astrocytoma adherent cells that allow use for HIV transfection and infection studies. U373-MAGI-CCR5 cells express β-gal under the control of HIV LTR, which is trans-activated by the HIV Tat protein in relation to the level of virus replication. In addition, these cells express CD4 and the human chemokine receptor CCR5 on its surface, which allow infection by primary HIV strains. U373 cells are propagated in 90% DMEM, 10% fetal bovine serum, 0.2 mg/ml G418, 0.1 mg/ml hydromycin B, and 1.0 μg/ml puromycin. For transfection and infection studies, U373 cells were maintained in 90% DMEM, 10% fetal bovine serum, and 1% penicillin/streptomycin. Thioaptamer RNase H-specific R12-2, control AP-1-specific or scrambled ODNs were transfected into the cells 24 hr prior to infection using Oligofectamine liposomes, according to the manufacturer's instructions (Invitrogen).
Infection of ODN-transfected U373-MAGI-CCR5 cells. Transfected cells and control cells were infected with HIV at m.o.i. of 0.003 (which consistently gives high levels of viral production) for 2 hr. Equal volumes of medium were then added and infection was continued for 48 hr. HIV replication was quantitated in cell lysates by measurement of β-gal activity, determined by luminometry using the β-Glo kit (Promega), according to the manufacturer's guidelines. β-gal activity is expressed as relative light units (RLU). To determine HIV TCID50 in U373-MAGI-CCR5 cells, serial dilutions (10×) of SF162-R5 virus supernatant were innoculated onto a 24-well plate containing 3×10^4 U373 cells for 2 hr, then equal volumes of complete medium were added, and infection was continued for 48 hr. Cells then were lysed and assayed for HIV-directed β-gal expression, and TCID50 (50% tissue culture infective dose) was calculated from quadruplicates. The p24 antigen capture assay (Beckman-Coulter) was used to determine virus production in some studies, measured by p24 antigen concentration in the culture supernatants harvested at day 7 post-infection.

B1: R12-2: 62-mer duplex DNA thioaptamer, monothiophosphate 5′ to dA, selected against RNase H domain of HIV-RT; probably SEQ ID NOS. 1 and 2 (nucleic acid)
chain 1: AATGCTTCCACGAGCCTTTCGGGGTTGGTGTACAGTGGATGGCTGCGAGGCGGTAGTCTATTC
chain 2: GAATAGACTACCGCCTCGCAGCCATCCACTGTACACCAACCCCGAAAGGCTCGTGGAAGCAT
modifications: DNA, backbone and methylation of C not given here; duplex DNA thioaptamer, monothiophosphate 5' to dA
notes: 62-mer duplex DNA thioaptamer, monothiophosphate 5′ to dA, selected against RNase H domain of HIV-RT; 1 and 2
binding to intact HIV-RT (EMSA) (HIV-RT; FIG. 4A): is binding
Kd (HIV-RT; intact HIV-RT, EMSA bound band intensity, Hill Plot, FIG. 4B, read-out: dissociation constant Kd): 70 nM
Kd (HIV-RT; specific binding to HIV-RT, read-out: binding constant): 70 nM
binding to isolated RNase H domain (NMR, imino proton signal broadening) [1]: binding
inhibition of RNase H activity [2]: inhibit; also recorded: shows inhibition
effect against the isolated RNase H domain (isolated RNase H domain): not effective
reduction of infection ([3]; Oligofectamine transfection 24 h prior to infection, HIV-SF162 m.o.i. 0.003, compared with untransfected or OF-only cells, FIG. 6): greater than 75%
inhibition of the virus at high m.o.i. ([3]; R12-2 0.05 μg/ml, inocula m.o.i. 0.05 to 0.0005, FIG. 8): significant inhibition
reduction of virus production ([3]; high m.o.i.): more than 50%
suppression of virus compared with AZT ([3]; m.o.i.≦0.005, AZT 10 μM, FIG. 8): comparable to that seen with AZT
IC50 ([3]; transfected 24 hrs prior to infection with HIV SF162, 48 hrs, doses 0.03 to 2.0 μg/ml, FIG. 7, read-out: IC50 (inhibition of HIV infection)): < 100 nM
effect on HIV infection / viral production ([3]; transfected U373-MAGI-CCR5 cells, FIG. 6): inhibits; also recorded: markedly reduces
